Measurements as given in publication PMC5480026.

Key:
[1] = target: T1, hIFNγ receptor hIFNGR1 (human (endogenous in WISH)) (UniProt P15260)
T1 sequence: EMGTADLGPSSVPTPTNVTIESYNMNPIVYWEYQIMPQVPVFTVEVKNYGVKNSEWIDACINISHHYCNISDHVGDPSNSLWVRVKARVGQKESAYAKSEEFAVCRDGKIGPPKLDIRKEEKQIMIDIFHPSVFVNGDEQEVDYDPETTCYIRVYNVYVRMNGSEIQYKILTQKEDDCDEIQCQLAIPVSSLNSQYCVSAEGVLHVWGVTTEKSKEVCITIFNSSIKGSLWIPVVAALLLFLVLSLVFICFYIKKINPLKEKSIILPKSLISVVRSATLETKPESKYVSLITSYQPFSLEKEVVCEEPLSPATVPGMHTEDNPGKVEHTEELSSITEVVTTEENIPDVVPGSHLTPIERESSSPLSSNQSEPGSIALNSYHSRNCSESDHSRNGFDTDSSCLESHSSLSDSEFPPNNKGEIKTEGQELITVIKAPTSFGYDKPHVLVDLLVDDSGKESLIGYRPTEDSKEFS

[2] = target: T1, hIFNγ receptor hIFNGR1 (human (endogenous in WISH)); remark: listed apart in the source

Row | biological activity, kynurenine bioassay on WISH cells [1] | specific biological activity after tag removal, kynurenine bioassay on WISH cells [2] | Substance
1 | 100 times lower | – | His6-FLAG-K88Q fusion protein expressed in E. coli (from UniProt P01579 24-161) (ligand)
2 | 100 times lower | – | His6-FLAG-hIFNγ fusion protein expressed in E. coli (from UniProt P01579 24-161) (ligand)
3 | – | 3e+07 IU/mg | human interferon-gamma (hIFNγ), tag-free after enterokinase removal of the His6-FLAG tag (from UniProt P01579 24-161) (ligand)
